Laboratory results from the supplement of paper PMC12042874.
± gives the uncertainty stated by the source.

Test: amyloid nucleation score (Sup35N fusion, yeast selection) (log enrichment); library NNK1; higher = more nucleation; inactive = no reads after selection
How it was run: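 In psi-negative yeast, Sup35N fusions carrying peptides of 20 random codons were induced with 100 μM copper sulfate for 24 hours. The cells then grew 7 days at 30°C on medium lacking adenine and uracil, and plasmid inserts from input and output were Illumina-sequenced, excluding sequences with under 100 input reads. Nucleation score is the DiMSum log enrichment of output over input reads, centred on the mode score of non-aggregating sequences.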

Substance	amyloid nucleation score
KYFIMCDIILCVVPVSYTGG	3.87 ± 0.074
KYFSSNSKYIYDQLIVPSRT	-0.42 ± 1.7
KYLFFMVFQWS	0.439 ± 0.84
KYTYGRHTQLVLDSIHSWLN	0.235 ± 0.75
LACTSASSVSRESFMYSQMS	2.78 ± 0.16
LAEWRLYLRRTVWYLRILIR	-0.066 ± 1
LAFNTIYWVIRIESFWLSAA	-0.189 ± 0.36
LAGQVVRRTKTLWHAPAHPY	0.374 ± 0.36
LALVDAHK	-1.02 ± 1
LAMPLFPLQDGSW	inactive
LARTMYCYIVSEKVLWSGVG	2.15 ± 0.1
LARYMIYWGLMSAGRHRRHY	-0.46 ± 0.43
LASFMQRRAYSDGHDMLVRM	inactive
LAVRESIVQDKTWQDYE	-0.102 ± 0.18
LAWWLCGNLVTWYIITDGQW	1.04 ± 0.55
LAYRR	0.274 ± 0.63
LCAISHIE	-0.502 ± 0.28
LCDGFILLSNVLLGPMIYDW	0.561 ± 0.27
LCDMAIDVFCLSCCK	6.652 ± 0.05
LCFCVKVS	inactive
LCIWYICRT	3.2 ± 0.16
LCLGLHSNLSLSMLRLLVLE	-0.482 ± 1.4

Substance	amyloid nucleation score
LCLLIDNTYIVDVFFYVLSQ	1.49 ± 0.32
LCLTKNMCTSIVRVRALVCR	-0.161 ± 0.26
LCNIITGVSSIGAYWSTKIL	1.22 ± 0.57
LCNVEDRPYKKFPTDVASK	-0.031 ± 0.31
LCPGFNWESFLVKMVLHFFR	-0.606 ± 0.75
LCSNYQCLTTVYQLVVVAEW	3.54 ± 0.13
LDDLPTILGVSEHSRSFVKV	-0.324 ± 0.61
LDEFSTSISITEWSSKL	-0.261 ± 0.3
LDGTLVLTYL	0.134 ± 0.42
LDHTTVWCWCGTGGLYRRCC	-0.29 ± 0.31
LDIINLGGRHFTRSPVLYRN	-0.297 ± 0.49
LDLAFSFLHSTNIWTTFGLC	-1.6 ± 1.4
LDLMVVCFKGIRGFEKMIGG	1.5 ± 0.31
LDQRKGPFSNSALRGHSWCN	-0.506 ± 0.44
LDSFTYKS	1.99 ± 0.49
LDVSTRQRLVGVD	-0.2 ± 0.61
LEKQMNASQFAPPRLLLRKL	0.498 ± 0.87
LELLSSWWYSSIYTGTDCVT	2.08 ± 0.25
LEVMRWYWESLLACISLCD	0.853 ± 0.74
LFCSLGSSPAYVNKWCVHLE	0.862 ± 0.45
LFCVSDSPCVCGRHSISYDW	-0.601 ± 0.9
LFFMVLFNKSTEFERLFHIV	-0.633 ± 0.56

Substance	amyloid nucleation score
LFGLNWYNNGGRKSGCSDWA	-0.503 ± 0.98
LFKLSLGCTYCSFA	-0.292 ± 0.42
LFLFTGLSSRSLHMCIYEIL	-0.046 ± 0.34
LFLGMSNGLFLRMISRGCKW	-0.243 ± 0.33
LFMLSSVGASMYFMG	1.69 ± 0.19
LFMLWLCCIKVFNKGCFGRS	-0.297 ± 0.26
LFPRVMN	0.338 ± 0.58
LFRFNWLDSNPV	inactive
LFRGDGFRKLLFWNSSTFET	2.67 ± 0.12
LFRIIWGCS	inactive
LFRIPDWPEL	-1.07 ± 0.77
LFRWVLLFFVRT	inactive
LFSNTNK	inactive
LFSSYSLEE	1.1 ± 0.77
LFSWFWNEI	0.658 ± 0.72
LFTIMTLDCNFRLSGLSLAI	0.236 ± 0.21
LFTTWMSRGDIVSYNFFL	7.681 ± 0.049
LFVGRGIAFVSFGPLALS	3.83 ± 0.08
LFWWKE	-0.292 ± 0.44
LFYPFTLHWVCCSWCLYEVR	6.927 ± 0.056
LGAMRLFTRSLFLADWKYDV	-0.04 ± 0.45
LGFSSVYWESCSL	-0.275 ± 0.58

Substance	amyloid nucleation score
LGFVDISGSYEVLGGYPSLR	0.031 ± 1.2
LGGFYTRRCVCSLGTRQERE	-0.072 ± 0.49
LGHGLDRMKLRTECNCTVVD	-0.503 ± 0.3
LGICLLCTDIWDRVGNLCSL	-0.041 ± 0.33
LGLTYWCYNFIQGDVFPPVQ	3.46 ± 0.15
LGLYSVCC	-0.219 ± 0.3
LGPNFGTKFNMGCY	-0.304 ± 0.24
LGSILV	-0.751 ± 0.94
LGTLNAGHTRDVDGAMGYVW	0.252 ± 1.1
LGYIEKFWVGGHYLFLPTIY	0.073 ± 1.5
LHCYFAFDLLWIALRTTVRI	-0.457 ± 1
LHDQCLAHGQWCNTWGK	-0.022 ± 0.39
LHFVERLSLRPMGVVGFSRK	-0.178 ± 0.7
LHLNLLAQDHLCREMTAAMS	-0.771 ± 1.7
LHLVTYFVTYVLYSFSISAS	-0.268 ± 0.7
LHLWCLQSFYMCWKCPPILE	2.57 ± 0.26
LHNYLLCTRVNRIDVLRMTL	-0.854 ± 0.37
LHPVLALPAFNVDRNSMPC	-0.335 ± 0.52
LHRIVTVNIP	1.23 ± 0.8
LHRSRFHDNTTSNGLLKGTV	-0.574 ± 0.6
